{
  "source": "paper PMC3323580",
  "about": "“Lack of Evidence from Studies of Soluble Protein Fragments that Knops Blood Group Polymorphisms in Complement Receptor-Type 1 Are Driven by Malaria” (PLoS ONE, 2012)",
  "binders": {"B1": {"name": "soluble CR1 (sCR1), full-length ectodomain of complement receptor-type 1 (receptor)", "chain": "not shown", "notes": "complement receptor-type 1 (CR1, CD35), human, soluble full-length ectodomain; also called full-length sCR1; source: a gift from Henry Marsh, Celdex Pharmaceuticals"}},
  "target": "T1, C1q, classical complement pathway protein (UniProt P02745 23-245; P02746 28-253; P02747 29-245)",
  "T1 construct": "Amine-coupled to a CM5 chip for SPR; in solution (140 ng/ml) for ELISA; source: bought: Complement Technology (Texas)",
  "T1 sequence (P02745 23-245, chain 1 of 3)": "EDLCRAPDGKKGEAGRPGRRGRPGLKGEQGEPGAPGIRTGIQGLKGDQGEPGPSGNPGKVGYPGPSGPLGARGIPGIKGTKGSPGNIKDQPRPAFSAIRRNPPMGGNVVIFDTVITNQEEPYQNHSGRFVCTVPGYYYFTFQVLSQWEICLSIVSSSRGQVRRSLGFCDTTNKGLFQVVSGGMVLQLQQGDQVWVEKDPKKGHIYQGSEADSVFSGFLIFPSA",
  "T1 sequence (P02746 28-253, chain 2 of 3)": "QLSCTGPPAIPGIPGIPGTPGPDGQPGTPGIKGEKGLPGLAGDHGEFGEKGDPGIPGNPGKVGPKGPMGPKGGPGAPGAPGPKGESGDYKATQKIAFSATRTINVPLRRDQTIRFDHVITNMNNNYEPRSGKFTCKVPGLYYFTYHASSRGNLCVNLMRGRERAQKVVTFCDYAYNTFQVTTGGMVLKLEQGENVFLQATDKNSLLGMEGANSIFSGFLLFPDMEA",
  "T1 sequence (P02747 29-245, chain 3 of 3)": "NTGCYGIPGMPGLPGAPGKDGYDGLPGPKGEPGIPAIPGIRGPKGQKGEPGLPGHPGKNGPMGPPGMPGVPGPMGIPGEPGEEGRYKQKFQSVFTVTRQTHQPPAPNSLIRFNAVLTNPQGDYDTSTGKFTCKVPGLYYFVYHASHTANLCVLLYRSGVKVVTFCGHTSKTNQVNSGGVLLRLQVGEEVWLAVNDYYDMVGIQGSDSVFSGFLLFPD",
  "assay": "SPR; C3b (1620 RU), C4b (1518 RU) and C1q (2125 RU) amine-coupled on three flow cells of one CM5 chip; CR1 fragments flowed at 30 µl/min, Biacore T100, 25°C, HBS-EP pH 7.4 (10 mM Hepes, 150 mM saline, 3 mM EDTA, 0.05% polysorbate 20); steady-state fit, one-to-one model; duplicates",
  "details": "both partners purified",
  "data": [
    {"binder": "B1", "values": [
      {"measurement": "Kd", "value": "8 ± 1", "unit": "µM"}
    ]}
  ]
}
